Measured values published in the DeepSol protein solubility set.

Experiment: soluble on expression in E. coli; label from the status in PepcDB or PDB records

| Sequence | soluble on expression in E. coli |
| --- | --- |
| MGSDKIHHHHHHVHKSLSNAFEGFSFSGDITTDVLGLLHHHGRQDVAKHVLAVAKTAQRLAPIYDVDSEAAYSAGLLHDISLIFSTSQMLQTALDLGLEPVTAEKRVPYLLHGKLSAAMAEIVFGVKNDSLVHAVSCHTTLCARATTLDKVVFLADKMSWDQEYSPFKPELETALEKSLDEAVGVFLTWTWKQKEKLNSIHPWLIDAWKDYKVGDYA | not soluble |
| MGSDKIHHHHHHVKTRFFCQSCGQESPRWLGKCPGCGEWNTLVEEVVERAAAKRTPLGVKATPLTEIQIREEERVSSGSQELNRVLGGGIVPGSFVLLGGEPGIGKSTLLLQTAGLLAKGMDVLYISGEESEKQIKLRAERLGIKESRLHILTETRLEVVRDVALAMGPGLLIVDSIQTMVLEELQAAAGSVSQVREGAAFLMRLAKEEEIPIFLVGHVTKEGAIAGPRVLEHIVDTVLYFEGDRHHVYRLLRAVKNRFGSTNEIGVFEMHEDGLVEVPNPSKVFLGENSATAPGSSVAVIVEGSRPLLVEIQALVTPTTYGPPRRTATGIDYNRILMLLAVLDKKVGLHLGAQDVFINIAGGIRIDEPGVDLACIAAIASSLGERPLKRYALVGEVGLTGEVRGISQIEKRVKEAVKLGFEGCIIPRINVSAVKVPGNFTVIAVKTVEEAVQVMFEQ | not soluble |
| MGSDKIHHHHHHVRACCGDQRAMSATDHGLPAIAELTDKELEVLRLLTAGHTIKSIAALLDRSEASINERLRDARRKTGVGSSRELARLVAGQENWPRKTDLSTPAVSGDADGQPALAARHWPKGTIAMFTLLPLAAGLMLVSAASQQADGPQSSHAAAAIASPLVGKWSLDTSRIPADERPRSVMIAFSVSPDQQWSTQVDIVAPDGSKMTATSTARADGVAVPISGNIPIFDTASLRQPAPNTLVMTLGKSGTPVATRVYTVARDGNSMTETIVWADKTMPKMETTYFNRVG | not soluble |
| MGSDKIHHHHHHYYYARGTYTHYNLDFDQDVTHLLDLGMKQISLEPVVAQPSDPYAFQEGDLPEILKTYDRLGEELLARRRKGEDFSFFHFNVALDQGPCLPKRLSGCGAGHEYVAISPEGDLYPCHQFVGQEEFKMGSLGQEGVPLNPEIIAKFRSAHVYSKAACRQCWARFSCSGGCHSANHAFSGQLNEVYALGCEFQKKRLEVALYMKIKEA | not soluble |
| MGSIIFLEDRAFQGRIYGCTTDCPNLQPYFSRCNSIVVQSGCWMIYERPNYQGHQYFLRRGEYPDYQQWMGLSDSIRSCCLIPPHSGAYRMKIYDRDELRGQMSELTDDCLSVQDRFHLTEIHSLNVLEGSWILYEMPNYRGRQYLLRPGEYRRFLDWGAPNAKVGSLRRVMDLYLEHHHHHH | soluble |
| MGSISRYLLKKAADGLKDEQRLKIEMSDSKSVPECFHFNRERRMPIAEINGEDGFFMFPSQQSLENFENTKKYSNELSPDAIGIPLFQIINCTLPFGKRGHSNTVVGNVPYYKIFKFILRTADEPPPYTVAKIVCSNNGLILYKVPLYDIYKNVSQANVTYSFVGTTSTEPNLLAMAHREGHRDLDTKVNNLNLRWHVTYSPVVTNDHYKLILLADYEVNRLDEDVIRAAKNKMSIDQKDQKVQRFVAAHYTREFETSLFRWVAQEGHLILGEYSTDQGSFGLNNIPPLTEELGCQSLLIHYIEYMKRQRKKIAKEARRQNKRNVANTTNMNMNLM | soluble |
| MGSLGPKVFKLDQLPGTIGKKAAKGASVKFSESSTQAVIKATYLQVFGRDVYEGQRLKVQEIKLENGEISVRDFVRALAKSDLFRKLYWTPFYVCKAIEYIHRRLLGRPTYGRQENNKYFDIASKKGLYAVVDAILDSLEYTETFGEDTVPYERYLEHHHHHH | soluble |
| MGSLVHVKEATVITPSDQTPSSVLSLSALDSQLFLRFTIEYLLVYPPVSDPEYSLSGRLKSALSRALVPYFPFSGRVREKPDGGGGLEVNCRGQGALFLEAVSDILTCLDFQKPPRHVTSWRKLLSLHVIDVLAGAPPLVVQLTWLRDGGAALAVGVNHCVSDGIGSAEFLTLFAELSKDSLSQTELKRKHLWDRQLLMPSPIRDSLSHPEFNRVPDLCGFVNRFNAERLVPTSVVFERQKLNELKKLASRLGEFNSKHTSFEVLSAHVWRSWARSLNLPSNQVLKLLFSVNIRDRVKPSLPSGFYGNAFVVGCAQTTVKDLTEKGLSYATMLVKQAKERVGDEYVRSVVEAVSKERASPDSVGVLILSQWSRLGLEKLDFGLGKPVHVGSVCCDRYCLLLPIPEQNDAVKVMVAVPSSSVDTYENLVTSPNA | not soluble |
| MGSMSMNAEQTVAELIARSNRLGSDPKNTNYAGGNTSAKGTDTDPVTGQPVELLWVKGSGGDLGTLTENGLAVLRLDRMRALVDVYPGVEREDEMVAAFDYCLHGRGGAAPSIDTAMHGLVDAAHVDHLHPDSGIALATAADGEALTKQIFGDRVVWVPWRRPGFQLGLDIADIKRRNPQAIGTILGGHGITAWGSTSAEAEAHSLEIIETAERYIAENGLEHHHHHH | soluble |
| MGSSHHHHHHGGTGENLYFQGGSGMSNSTEQALLQIAQQIERAVDDEIDRIDQMDDDEILAIRQKRLKQLKEIQARRDEWLRKGHGQYLEIAEPKEFFDNVQSSERIVVHFMRRSTPRCEIIERHLRTIAHEHFETRFCYVDVERIPSLPERFNVMMLPTLMLVEKGHTFHSIIGFDEFGGTDDFTTDTVTQVLAHYGMVNEKGMFAADQNDE | soluble |
| MGSSHHHHHHGGTGENLYFQGGSGRRLPLFCRRPSRCCGATASGSGSSSAAVLAASAAPSVLVLAARGIATSGRVTNEDRRWWLVHLECAPDVTPGTFVSWLDCCGTHTTKKLIERNIWTIEQVAELDSDRVDELKYKEGCLKMDVVWEHARTIITPLKQREVSGGVESQLQSRILELRKKRELERQRELLARERATVSDKREETLRRLRESVAAKKAALRKKLDEQHGEATPAASESASTEAHRGTAEAAVEDEAVGNIVDRMSGGNPPRA | not soluble |
| MGSSHHHHHHGGTGENLYFQGGSGTAPPGSPAFCPPPAQYQYAYVPAASYVAASSCVGRGNNGGPLPYPLQPEAAPGYGEEQTSLLWNTRLFGLSTDVPSAMDSVMCIYCISSTHFNYLYRQQRGMFDPITAALLCFDVFWCMQLWPVVTPLSSITLHTLITRRELRKRYGLVGNDLFVKMDRLNADTAAATEAGETGAQAEEATTAEVESQPHRARDSDVTAEAAAAEPAGTGEAAAEVISVTPPATAPSEAAAPRTGESDVMAHTPRRVCHGLRS | not soluble |
| MGSSHHHHHHGKTIFVIVPTNEEQVAFLEALAKQDELNFDWQNPPTEPGQPVVILIPSDMVEWFLEMLKAKGIPFTVYVEEGGSENLYFQGGGGGGWPTEDPNELLKSQVWQKYHNQLNERKEYADKLLQDSNYIHRKNNPGE | soluble |
| MGSSHHHHHHSSGLVPRGSHMAAPIRFFELNTGAKLPCVGLGTYAMVATAIEQAIKIGYRHIDCASIYGNEKEIGGVLKKLIGDGFVKREELFITSKLWSNDHLPEDVPKALEKTLQDLQIDYVDLYLIHWPASLKKESLMPTPEMLTKPDITSTWKAMEALYDSGKARAIGVSNFSSKKLTDLLNVARVTPAVNQVECHPVWQQQGLHELCKSKGVHLSGYSPLGSQSKGEVRLKVLQNPIVTEVAEKLGKTTAQVALRWGLQTGHSVLPKSSSGARLKENLDVFDWSIPEDLFTKFSNIPQEKFCRATEFAHETHGFYKTIEELWDGEI | soluble |
| MGSSHHHHHHSSGLVPRGSHMASMTGGQQMGRGSMTTHLQAKATLHNGVEMPWFGLGVFQVEEGSELVNAVKTAIVHGYRSIDTAAIYGNEAGVGEGIREGIEEAGISREDLFITSKVWNADLGYEETLAAFETSLSKLGLDYLDLYLIHWPVEGKYKEAWRALETLYKEGRIKAIGVSNFQIHHLEDLMTAAEIKPMINQVEFHPRLTQKELIRYCQNQGIQMEAWSPLMQGQLLDHPVLADIAQTYNKSVAQIILRWDLQHGIITIPKSTKEHRIKENASVFDFELTQDDMNRIDALNENLRVGPDPDNFDF | soluble |
| MGSSHHHHHHSSGLVPRGSHMASMYTVGDYLLDRLHELGIEEIFGVPGDYNLQFLDQIISREDMKWIGNANELNASYMADGYARTKKAAAFLTTFGVGELSAINGLAGSYAENLPVVEIVGSPTSKVQNDGKFVHHTLADGDFKHFMKMHEPVTAARTLLTAENATYEIDRVLSQLLKERKPVYINLPVDVAAAKAEKPALSLEKESSTTNTTEQVILSKIEESLKNAQKPVVIAGHEVISFGLEKTVTQFVSETKLPITTLNFGKSAVDESLPSFLGIYNGKLSEISLKNFVESADFILMLGVKLTDSSTGAFTHHLDENKMISLNIDEGIIFNKVVEDFDFRAVVSSLSELKGIEYEGQYIDKQYEEFIPSSAPLSQDRLWQAVESLTQSNETIVAEQGTSFFGASTIFLKSNSRFIGQPLWGSIGYTFPAALGSQIADKESRHLLFIGDGSLQLTVQELGLSIREKLNPICFIINNDGYTVEREIHGPTQSYNDIPMWNYSKLPETFGATEDRVVSKIVRTENEFVSVMKEAQADVNRMYWIELVLEKEDAPKLLKKMGKLFAEQNK | soluble |
| MGSSHHHHHHSSGLVPRGSHMGHGSRLPYGEEVINGIADIYRQEADHPVAVGFMNMSRPSIPEAINELAAMGVEKIIVTPVFLAHGVHTKHDIPHILGLDNGAEGHHHHEHEHEHEEFEFDGEIVYTEPLGADPRIAEIIRDRVKSAI | soluble |
| MGSSHHHHHHSSGLVPRGSHMIVREGSAEILVPEVYHGPGKRGTGFYNADQKINRDITIEFIKKMGIRNVLDGFGGTGIRGIRISKETDSAVTISEVSPDSYRLIRDNVERNGSQASVINDSFECVLQHGAYEYVDVDPYGSPVPYLDAALMGVKRNGFLGVTATDQSALTGSVPHKTRIRYDALIKNDTFRHEMGIRLLIGYMAKRAASLGRFIDPLISIWHGHYYRVFVRVRKGFEGAGRMMQNLGYVNKHNLLSGIYQDMDEGPVWKGNLQDNAVAEAVLASAGHKAFNPEENRLLFCDLTDIARARHTSLPDIESVIDALSSSGHAASRTMFSPTGIKTDASCDLVESLMMDTLHRRSPA | soluble |
| MGSSHHHHHHSSGLVPRGSHMKGDKRRDIRDILLHDETLFRNMNAFDPDYVPENYRYRESQMEALAVCIRPALRNGRPVNAVILGSCATGKTTAIKKIFEMVESTSEGVVCCYINCQLHTTRFGIFSQIYSKIFGHQPPETGVPFSRIYQTIMQHLASEKRALVVALDDINHLFYSKNANKVLYDILRAHEVFEGVRTGVFAVLSDIEFRYALDKNVDSIFIPQEIVFPPYTREEVFNILRDRVRVGFYPGVISDELLERITDHTMDTGDLRYGIDLLRVCGNLAEADASPVIGEEHLERALKSTGPVNLIHTVRTLNENEREFLRILADAGEDMTAGALYELFRESTGSSYSSFNRIIEKLEFLRLIDTRLTGKGVRGNSRILIPRFSREDLRRCPGF | soluble |
| MGSSHHHHHHSSGLVPRGSHMKWDYDLRCGEYTLNLNEKTLIMGILNVTPDSFSDGGSYNEVDAAVRHAKEMRDEGAHIIDIGGESTRPGFAKVSVEEEIKRVVPMIQAVSKEVKLPISIDTYKAEVAKQAIEAGAHIINDIWGAKAEPKIAEVAAHYDVPIILMHNRDNMNYRNLMADMIADLYDSIKIAKDAGVRDENIILDPGIGFAKTPEQNLEAMRNLEQLNVLGYPVLLGTSRKSFIGHVLDLPVEERLEGTGATVCLGIEKGCEFVRVHDVKEMSRMAKMMDAMIGKGVK | soluble |
